# B1: copper chaperone for Sod1 (Ccs1), full-length wild type (natural protein)
# chain: GHMTTNDTYEATYAIPMHCENCVNDIKACLKNVPGINSLNFDIEQQIMSVESSVAPSTIINTLRNCGKDAIIRGAGKPNSSAVAILETFQKYTIDQKKDTAVRGLARIVQVGENKTLFDITVNGVPEAGNYHASIHEKGDVSKGVESTGKVWHKFDEPIECFNESDLGKNLYSGKTFLSAPLPTWQLIGRSFVISKSLNHPENEPSSVKDYSFLGVIARSAGVWENNKQVCACTGKTVWEERKDALANNIK
# Legend:
# [1] = biological target: T1, H46R/H48Q/C146S Sod1 labeled with Alexa-546 at C57 (yeast); experiment: other fluorescence titration; microplate, quenching of Alexa-546-labeled Sod1 on titration with Ccs1; Sod1 zinc bound and disulfide reduced (E, Zn-Sod1^SH); 20 mM Tris pH 7.5, 150 mM NaCl, 1 mM TCEP, 0.01% octyl glucoside and CHAPS
# T1 sequence (P00445 2-154 with H46R H48Q C146S, looked up): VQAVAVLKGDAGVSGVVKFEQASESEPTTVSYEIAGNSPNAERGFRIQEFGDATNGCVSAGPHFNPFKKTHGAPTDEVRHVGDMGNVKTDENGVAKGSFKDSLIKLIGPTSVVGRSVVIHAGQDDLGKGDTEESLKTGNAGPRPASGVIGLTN
# [2] = biological target: T1, H46R/H48Q/C146S Sod1 labeled with Alexa-546 at C57 (yeast); experiment: as above; remark: listed apart in the source
# [3] = biological target: T1, H46R/H48Q/C146S Sod1 labeled with Alexa-546 at C57 (yeast); experiment: other fluorescence titration; microplate, quenching of Alexa-546-labeled Sod1 on titration with Ccs1; Sod1 metal deficient and disulfide reduced (E, E-Sod1^SH); 20 mM Tris pH 7.5, 150 mM NaCl, 1 mM TCEP, 0.01% octyl glucoside and CHAPS
# [4] = biological target: T1, H46R/H48Q/C146S Sod1 labeled with Alexa-546 at C57 (yeast); experiment: as above; remark: listed apart in the source
binder,measurement,setting,value
B1,Kd,[1],114 nM
same,Kd,[2],134 nM
same,Kd,[3],36 nM
same,Kd,[4],34 nM

# Source: article PMC6018003
